Values of other authors, collected in publication PMC2925223.

System: His64
Assay: not stated
Details: His64 in the inward orientation in the crystal structures

Carbonic anhydrase II (HCA II) Y7F (Homo sapiens; Y7F)
pKa: near 6.0
